Assay [1] addresses ptau 187-212 (pY197, pT205 by the sequence printed in Table 11) (human). The assay is described as follows: peptide ELISA, 2 ug/mL.
In assay [2] the target is ptau 187-212 (pS202, pT205 by the sequence printed in Table 22) (human). The assay is described as follows: Ala-scan peptide ELISA, 1 ug/mL. (An ELISA detects its analyte on a solid surface through an enzyme-linked reagent.)

Chain of CBTAU-7.1 (antibody) (VH): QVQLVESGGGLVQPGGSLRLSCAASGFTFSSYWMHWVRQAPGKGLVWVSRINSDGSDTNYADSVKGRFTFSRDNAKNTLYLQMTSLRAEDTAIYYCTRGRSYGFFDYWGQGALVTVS
Chain of CBTAU-7.1 (antibody) (VL): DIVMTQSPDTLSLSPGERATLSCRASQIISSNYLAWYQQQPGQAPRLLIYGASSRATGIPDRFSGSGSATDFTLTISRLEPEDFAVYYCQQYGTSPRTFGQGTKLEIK

Consider CBTAU-7.1 (antibody), for which the OD450 in assay [1] was 0.5 to 1 od; in assay [2], above 1.5 od.

The values are drawn from patent US20170210787A1.
